Experimental data published in patent US20120214174.
Substitutions are numbered along the chain they refer to. Numbers in names are those of the source.

T1: MUC1-a peptide (AHGVTSAPDTR)
T1 chain: AHGVTSAPDTR

T2: MUC1-b peptide (RPAPGSTAPPA)
T2 chain: RPAPGSTAPPA

B1: recombinant wild-type GALNT6 protein without a signal peptide (codons 35-622), His-tagged (protein)
chain: EEATEKPWLKSLVSRKDHVLDLMLEAMNNLRDSMPKLQIRAPEAQQTLFSINQSCLPGFYTPAELKPFWERPPQDPNAPGADGKAFQKSKWTPLETQEKEEGYKKHCFNAFASDRISLQRSLGPDTRPPECVDQKFRRCPPLATTSVIIVFHNEAWSTLLRTVYSVLHTTPAILLKEIILVDDASTEEHLKEKLEQYVKQLQVVRVVRQEERKGLITARLLGASVAQAEVLTFLDAHCECFHGWLEPLLARIAEDKTVVVSPDIVTIDLNTFEFAKPVQRGRVHSRGNFDWSLTFGWETLPPHEKQRRKDETYPIKSPTFAGGLFSISKSYFEHIGTYDNQMEIWGGENVEMSFRVWQCGGQLEIIPCSVVGHVFRTKSPHTFPKGTSVIARNQVRLAEVWMDSYKKIFYRRNLQAAKMAQEKSFGDISERLQLREQLHCHNFSWYLHNVYPEMFVPDLTPTFYGAIKNLGTNQCLDVGENNRGGKPLIMYSCHGLGGNQYFEYTTQRDLRHNIAKQLCLHVSKGALGLGSCHFTGKNSQVPKDEEWELAQDQLIRNSGSGTCLTSQDKKPAMAPCNPSDPHQLWLFV
B2: recombinant GALNT6 H271D mutant protein (protein)
chain: B1 chain with H237D
B3: recombinant GALNT6 E382Q mutant protein (protein)
chain: B1 chain with E348Q
B4: HA-tagged wild-type GALNT6 protein stably expressed in HeLa cells (pCAGGS-GALNT6-HA) (protein)
chain: MRLLRRRHMPLRLAMVGCAFVLFLFLLHRDVSSREEATEKPWLKSLVSRKDHVLDLMLEAMNNLRDSMPKLQIRAPEAQQTLFSINQSCLPGFYTPAELKPFWERPPQDPNAPGADGKAFQKSKWTPLETQEKEEGYKKHCFNAFASDRISLQRSLGPDTRPPECVDQKFRRCPPLATTSVIIVFHNEAWSTLLRTVYSVLHTTPAILLKEIILVDDASTEEHLKEKLEQYVKQLQVVRVVRQEERKGLITARLLGASVAQAEVLTFLDAHCECFHGWLEPLLARIAEDKTVVVSPDIVTIDLNTFEFAKPVQRGRVHSRGNFDWSLTFGWETLPPHEKQRRKDETYPIKSPTFAGGLFSISKSYFEHIGTYDNQMEIWGGENVEMSFRVWQCGGQLEIIPCSVVGHVFRTKSPHTFPKGTSVIARNQVRLAEVWMDSYKKIFYRRNLQAAKMAQEKSFGDISERLQLREQLHCHNFSWYLHNVYPEMFVPDLTPTFYGAIKNLGTNQCLDVGENNRGGKPLIMYSCHGLGGNQYFEYTTQRDLRHNIAKQLCLHVSKGALGLGSCHFTGKNSQVPKDEEWELAQDQLIRNSGSGTCLTSQDKKPAMAPCNPSDPHQLWLFV
B5: HA-tagged GALNT6 H271D mutant stably expressed in HeLa cells (pCAGGS-GALNT6 (H271D)-HA) (protein)
chain: B4 chain with H271D

Experiments:
[1] = target: T1, MUC1-a peptide (AHGVTSAPDTR)
[2] = target: T2, MUC1-b peptide (RPAPGSTAPPA)
[3] = target: endogenous MUC1 protein (Mucin-1)

Row | Protein | in vitro GalNAc-transferase assay (HPLC of DNS-labelled peptide) [1] | in vitro GalNAc-transferase assay (HPLC of DNS-labelled peptide) [2] | Western blot of MUC1 in stable HeLa transformants (band shift by O-glycosylation) [3]
1 | B1 | WT-GALNT6 rapidly O-glycosylated MUC1 peptides in 10-min incubation | WT-GALNT6 rapidly O-glycosylated MUC1 peptides in 10-min incubation | 
2 | B2 | mutant-GALNT6 proteins (H271D and E382Q) could not transfer GalNAc to MUC1 peptides even by 16 hours incubation | mutant-GALNT6 proteins (H271D and E382Q) could not transfer GalNAc to MUC1 peptides even by 16 hours incubation | 
3 | B3 | mutant-GALNT6 proteins (H271D and E382Q) could not transfer GalNAc to MUC1 peptides even by 16 hours incubation | mutant-GALNT6 proteins (H271D and E382Q) could not transfer GalNAc to MUC1 peptides even by 16 hours incubation | 
4 | B4 |  |  | In the cells with WT-GALNT6 (clone no. 101, 110 and 304), the highest molecular weight of MUC1 protein (>250 kDa) was observed
5 | B5 |  |  | in those with mock (clone no. 001, 003 and 006) or H271D (clone no. 102, 212 and 114) the shifted band was not observed
